The record followed here is PMC9174195, “Structural insights into human brain–gut peptide cholecystokinin receptors” (Cell Discovery, 2022).

Square brackets hold non-standard residues; d marks the D form. Ends that are not written are not given here. sY = N[C@@H](Cc1ccc(OS(=O)(=O)O)cc1)C(=O)O

Among the targets are CCK2R L335A (human) (UniProt P32239); CCK2R Q166A (human) (UniProt P32239); CCK2R I156A (human) (UniProt P32239); CCK2R R152A (human) (UniProt P32239); CCK2R K324N (human) (UniProt P32239).
The target of assay [1] is T1, human CCK2R with 15-residue depletion at the C-terminus, N-terminal Flag-tag, C-terminal LgBiT and double MBP … (human, UniProt P32239 1-432).
T1 construct: human cholecystokinin receptor CCK2R, wild type, C-terminal 15 residues removed; also called CCK2 receptor; gastrin receptor; not shown: LgBiT, C-terminal, kept
T1 sequence (looked up): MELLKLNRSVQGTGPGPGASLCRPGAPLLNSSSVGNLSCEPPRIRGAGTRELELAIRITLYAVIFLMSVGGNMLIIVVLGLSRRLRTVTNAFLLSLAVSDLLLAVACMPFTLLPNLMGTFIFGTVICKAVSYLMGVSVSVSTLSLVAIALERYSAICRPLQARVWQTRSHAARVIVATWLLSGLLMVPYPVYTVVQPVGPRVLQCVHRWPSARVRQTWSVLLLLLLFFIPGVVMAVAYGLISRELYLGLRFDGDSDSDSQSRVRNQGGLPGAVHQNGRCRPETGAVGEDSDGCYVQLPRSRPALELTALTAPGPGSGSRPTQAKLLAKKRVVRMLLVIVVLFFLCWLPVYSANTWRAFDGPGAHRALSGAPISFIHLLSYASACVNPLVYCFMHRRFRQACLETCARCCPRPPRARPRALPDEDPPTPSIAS
Description: cryo-EM structure; gastrin-17–CCK2R–Gq–scFv16 complex; CCK2R, GqiN, Gβγ-peptide and Ric-8A co-expressed in Sf9, ligand and apyrase added, complex purified on MBP resin and Superdex 200 (20 mM HEPES pH 7.5, 100 mM NaCl); 13 mg/mL on the grid; 3.1 Å. The conditions noted are these: both partners purified.

As to “Gαq with the 29 N-terminal amino acids replaced by the corresponding sequence of Gαi1 (GqiN) (from UniProt P50148 30-359)”, the CCK-8 efficacy, CCK-8-induced Gαq–Gγ dissociation (NanoBiT) assay (% reduction of efficacy) with CCK2R L335A (human), with CCK2R Q166A (human) and with CCK2R I156A (human) was 50 throughout. The efficacy of G protein signaling against the wild type, CCK-8-induced Gαq–Gγ dissociation (NanoBiT) assay (% of the wild-type) with CCK2R R152A (human) is 30. Moreover, in the assay with CCK2R R152A (human), the potency of G protein signaling against the wild type, CCK-8-induced Gαq–Gγ dissociation (NanoBiT) assay is > 3 fold.
“dominant-negative human Gαs (DNGαs) (from UniProt P63092 1-394) (natural protein)”: the coupling potency with Gs against wild-type CCK2R, CCK-8-induced cAMP accumulation (Fig. 7d) with CCK2R K324N (human) was > 3 fold.

B1: sulfated gastrin-17 (peptide, UniProt P01350 76-92, looked up)
peptide: QGPWLEEEEEA[sY]GWMDF
modifications: not fully specified (residue 1, C-terminus)
notes: gastrin-17, cut product of the gastrin precursor
On to B1, for which, in assay [1], the binding result is “binds”.
